Assay results from article doi:10.1101/452482 (bioRxiv, 2018).
Like-named read-outs stand apart in the source and are kept apart here. Ends that are not written are not given here. fluorescein = fluorescein label at the N-terminus of the peptide

How the values were obtained:
[1] = molecular target: N-CoRNID labelled with Atto647N (mouse) (UniProt Q60974); assay: MST
[2] = molecular target: N-CoRNID labelled with Atto647N (mouse) (UniProt Q60974); assay: MST; remark: listed apart in the source
[3] = molecular target: N-CoRNID, nuclear receptor interaction domain of N-CoR (Gln2059 to Glu2325) (mouse) (UniProt Q60974); assay: SAXS
Sequence of N-CoRNID, nuclear receptor interaction domain of N-CoR (Gln2059 to Glu2325) (mouse) (Q60974 2059-2325): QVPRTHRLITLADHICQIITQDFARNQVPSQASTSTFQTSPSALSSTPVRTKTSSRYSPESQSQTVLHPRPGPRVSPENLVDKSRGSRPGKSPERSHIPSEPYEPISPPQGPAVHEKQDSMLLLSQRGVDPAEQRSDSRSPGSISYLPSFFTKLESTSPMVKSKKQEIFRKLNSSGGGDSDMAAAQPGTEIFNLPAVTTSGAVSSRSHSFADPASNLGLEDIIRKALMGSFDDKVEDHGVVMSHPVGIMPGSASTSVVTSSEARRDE

[4] = molecular target: N-CoRNID, nuclear receptor interaction domain of N-CoR (Gln2059 to Glu2325) (mouse) (UniProt Q60974); assay: AUC + other: RPLC-UV/MS
[5] = molecular target: fluorescent peptide CoRNR1 of N-CoR; assay: fluorescence polarisation
[6] = molecular target: fluorescent peptide CoRNR2 of N-CoR; assay: fluorescence polarisation
[7] = molecular target: T1, RXR (RXRα ligand-binding domain) (mouse, UniProt P28700 227-467); assay: fluorescence polarisation
T1 sequence (looked up): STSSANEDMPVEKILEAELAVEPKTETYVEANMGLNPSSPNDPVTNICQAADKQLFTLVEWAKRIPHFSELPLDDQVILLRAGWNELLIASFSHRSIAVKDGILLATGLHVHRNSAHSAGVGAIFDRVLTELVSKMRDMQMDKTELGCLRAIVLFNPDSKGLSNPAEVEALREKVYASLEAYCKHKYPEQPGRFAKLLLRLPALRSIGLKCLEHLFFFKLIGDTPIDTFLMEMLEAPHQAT

[8] = molecular target: T1, RXR (RXRα ligand-binding domain); assay: AUC + other: RPLC-UV/MS

Sequence of N-CoRNID labelled with Atto647N (mouse) (Q60974 2059-2325): as the sequence (Q60974 2059-2325) above

RXR/RAR heterodimer (mRXRα/hRARα), ligand-binding domains (from UniProt P28700 1-467; P10276 1-462) (complex)
Kd [1]: 0.21 µM
Kd [2]: 8.6 µM
population of unbound species [3]: 51%
stoichiometry N [4]: 1
Kd [5]: 1.68 µM
Kd [6]: 1.47 µM

RXR/RARI396E heterodimer (mRXRα/hRARαI396E) (from UniProt P28700 1-467; P10276 1-462) (complex)
Kd [1]: 4.42 µM

fluorescein-DPASNLGLEDIIRKALMGSFD [fluorescent peptide CoRNR2 of N-CoR]
Kd [7]: 22.5 µM

B1: RAR (RARα ligand-binding domain) (domain or fragment, human, UniProt P10276 176-421, looked up)
chain: ESYTLTPEVGELIEKVRKAHQETFPALCQLGKYTTNNSSEQRVSLDIDLWDKFSELSTKCIIKTVEFAKQLPGFTTLTIADQITLLKAACLDILILRICTRYTPEQDTMTFSDGLTLNRTQMHNAGFGPLTDLVFAFANQLLPLEMDDAETGLLSAICLICGDRQDLEQPDRVDMLQEPLLEALKVYVRKRRPSRPHMFPKMLMKITDLRSISAKGAERVITLKMEIPGSMPPLIQEMLENSEGLD
stoichiometry N [8]: 1
